# Test results taken from publication PMC6685660.
# T1: AaNPR1 (Artemisia annua, UniProt A0A481P8F5 1-569)
# T1 sequence: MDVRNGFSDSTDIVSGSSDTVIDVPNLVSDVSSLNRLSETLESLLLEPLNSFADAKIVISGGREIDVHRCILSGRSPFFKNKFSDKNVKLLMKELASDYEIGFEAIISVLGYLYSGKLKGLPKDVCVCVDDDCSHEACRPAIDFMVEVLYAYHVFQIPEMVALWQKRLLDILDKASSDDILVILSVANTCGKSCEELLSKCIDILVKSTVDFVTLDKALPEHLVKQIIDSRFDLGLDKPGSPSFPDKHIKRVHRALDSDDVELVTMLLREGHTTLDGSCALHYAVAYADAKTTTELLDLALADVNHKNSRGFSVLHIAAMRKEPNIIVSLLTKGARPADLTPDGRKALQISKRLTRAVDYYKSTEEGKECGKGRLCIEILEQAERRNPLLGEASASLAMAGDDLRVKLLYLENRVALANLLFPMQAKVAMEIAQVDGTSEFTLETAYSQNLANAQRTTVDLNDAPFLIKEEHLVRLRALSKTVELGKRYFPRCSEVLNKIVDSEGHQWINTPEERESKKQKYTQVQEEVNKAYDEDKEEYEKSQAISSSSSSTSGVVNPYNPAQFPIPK
# T2: AaTGA6 (Artemisia annua, UniProt A0A481P8G0 1-436)
# T2 sequence: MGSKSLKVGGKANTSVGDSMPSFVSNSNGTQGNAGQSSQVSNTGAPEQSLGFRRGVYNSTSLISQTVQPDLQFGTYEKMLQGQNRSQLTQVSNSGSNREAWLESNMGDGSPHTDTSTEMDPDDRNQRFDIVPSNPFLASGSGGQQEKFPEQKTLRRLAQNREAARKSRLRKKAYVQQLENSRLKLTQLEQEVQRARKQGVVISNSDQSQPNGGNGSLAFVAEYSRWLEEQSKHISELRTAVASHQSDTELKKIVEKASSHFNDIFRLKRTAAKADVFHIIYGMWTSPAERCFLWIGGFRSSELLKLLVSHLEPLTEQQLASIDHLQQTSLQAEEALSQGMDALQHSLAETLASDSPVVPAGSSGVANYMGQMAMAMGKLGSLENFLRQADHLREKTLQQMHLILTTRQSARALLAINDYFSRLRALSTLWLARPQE
# T3: AaTGA6;AaNPR1 (Artemisia annua;Artemisia annua, UniProt A0A481P8G0;A0A481P8F5 1-436;1-569, |)
# T3 sequence 1: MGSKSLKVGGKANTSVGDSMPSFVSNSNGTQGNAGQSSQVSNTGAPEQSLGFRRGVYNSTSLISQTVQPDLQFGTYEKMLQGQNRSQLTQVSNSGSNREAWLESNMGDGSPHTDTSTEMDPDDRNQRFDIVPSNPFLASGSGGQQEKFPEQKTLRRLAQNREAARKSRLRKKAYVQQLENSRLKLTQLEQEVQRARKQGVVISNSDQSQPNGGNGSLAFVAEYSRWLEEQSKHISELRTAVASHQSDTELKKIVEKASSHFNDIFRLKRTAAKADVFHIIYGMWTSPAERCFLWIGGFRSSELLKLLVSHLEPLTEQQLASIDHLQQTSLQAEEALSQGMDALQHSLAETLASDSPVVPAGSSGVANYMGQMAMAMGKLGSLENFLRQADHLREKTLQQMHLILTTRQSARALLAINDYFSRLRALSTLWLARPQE
# T3 sequence 2: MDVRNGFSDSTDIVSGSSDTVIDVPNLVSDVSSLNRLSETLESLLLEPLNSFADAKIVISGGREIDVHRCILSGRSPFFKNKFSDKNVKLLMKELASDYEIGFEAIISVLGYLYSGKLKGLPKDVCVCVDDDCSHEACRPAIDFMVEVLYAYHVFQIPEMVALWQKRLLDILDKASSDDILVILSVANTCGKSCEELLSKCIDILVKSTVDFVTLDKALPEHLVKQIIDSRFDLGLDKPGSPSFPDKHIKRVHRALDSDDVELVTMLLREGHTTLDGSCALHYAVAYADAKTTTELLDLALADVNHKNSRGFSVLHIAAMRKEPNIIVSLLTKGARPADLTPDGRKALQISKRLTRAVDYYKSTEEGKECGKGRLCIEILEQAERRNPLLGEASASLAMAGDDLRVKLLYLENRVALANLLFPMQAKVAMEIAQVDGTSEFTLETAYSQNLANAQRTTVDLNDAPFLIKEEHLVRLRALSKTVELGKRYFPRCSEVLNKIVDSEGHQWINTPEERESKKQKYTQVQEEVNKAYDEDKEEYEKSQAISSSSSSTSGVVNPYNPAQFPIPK
# What was measured:
# Experiment in all cases: EMSA
# [1] = molecular target: T1, AaNPR1
# [2] = molecular target: T2, AaTGA6
# [3] = molecular target: T3, AaTGA6;AaNPR1
binder,measurement,setting,value
AaERF1 promoter TGACG box probe (40 bp) (dsDNA) DNA 1: AATGATGCGTCAAGCCATGACGTCACCCCTAATCCTAAAT DNA 2: ATTTAGGATTAGGGGTGACGTCATGGCTTGACGCATCATT,binding result,[1],no binding
same,binding result,[2],binds
same,binding result,[3],binds
